Data set [1] deals with the molecule itself. Description: SEC. For orientation: SEC sorts molecules by how far they enter the pores of the column.
For data set [2], the target named is T1, LiBRCA2-B1 (Leishmania infantum, UniProt A4HYJ9 1-122).
T1 sequence: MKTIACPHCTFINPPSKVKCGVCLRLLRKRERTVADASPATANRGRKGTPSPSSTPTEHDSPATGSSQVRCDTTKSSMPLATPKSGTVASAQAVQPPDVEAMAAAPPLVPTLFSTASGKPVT
Kind of data set: EMSA.

The target in data set [3] is T2, LiBRCA2 (Leishmania infantum, UniProt A4HYJ9 1-1165).
T2 sequence: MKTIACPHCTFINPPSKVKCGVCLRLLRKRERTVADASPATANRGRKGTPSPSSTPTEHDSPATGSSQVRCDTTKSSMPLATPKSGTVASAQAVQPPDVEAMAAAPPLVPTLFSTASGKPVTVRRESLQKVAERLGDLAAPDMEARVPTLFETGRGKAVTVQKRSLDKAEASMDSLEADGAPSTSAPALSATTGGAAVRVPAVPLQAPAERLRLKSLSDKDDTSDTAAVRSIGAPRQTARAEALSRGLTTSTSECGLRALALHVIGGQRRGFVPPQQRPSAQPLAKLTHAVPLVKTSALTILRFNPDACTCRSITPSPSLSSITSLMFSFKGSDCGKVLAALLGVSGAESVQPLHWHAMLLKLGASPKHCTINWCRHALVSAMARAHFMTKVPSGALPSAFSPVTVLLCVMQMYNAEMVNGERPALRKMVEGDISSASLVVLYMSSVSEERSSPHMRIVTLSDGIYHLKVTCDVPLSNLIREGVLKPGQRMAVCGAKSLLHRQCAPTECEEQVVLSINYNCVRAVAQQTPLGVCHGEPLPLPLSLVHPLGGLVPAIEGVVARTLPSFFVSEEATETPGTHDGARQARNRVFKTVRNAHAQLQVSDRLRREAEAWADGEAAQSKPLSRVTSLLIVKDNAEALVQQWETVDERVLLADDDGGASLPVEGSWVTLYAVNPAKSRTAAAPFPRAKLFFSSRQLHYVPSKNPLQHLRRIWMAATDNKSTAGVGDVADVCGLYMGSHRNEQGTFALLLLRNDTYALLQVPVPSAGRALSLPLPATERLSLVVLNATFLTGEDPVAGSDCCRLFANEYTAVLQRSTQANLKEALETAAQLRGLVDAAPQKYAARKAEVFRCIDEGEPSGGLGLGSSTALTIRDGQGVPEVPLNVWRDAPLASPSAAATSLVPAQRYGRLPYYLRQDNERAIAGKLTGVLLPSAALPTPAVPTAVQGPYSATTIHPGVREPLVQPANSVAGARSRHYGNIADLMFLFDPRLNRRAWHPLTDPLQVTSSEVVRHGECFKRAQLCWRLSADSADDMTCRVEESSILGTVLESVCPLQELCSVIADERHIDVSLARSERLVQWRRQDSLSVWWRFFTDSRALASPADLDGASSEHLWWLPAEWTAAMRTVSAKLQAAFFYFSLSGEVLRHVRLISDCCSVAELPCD
Description: EMSA.

B1: Leishmania infantum RAD51, purified (GST tag cleaved) (natural protein)
chain: MQTRSKAKGRRGRPSARPSEEVEVVESQPQEALQNEEQEPRQQQQQSTDMAEPNASGFRVIQILENYGVASSDIKKLMECGFYTVESAAYAPKKAILAVKGISENKAEKIMAECAKLVPMGFTSAVAYHEARKEIIMVTTGSREVDKLLGGGIETGSITELFGEFRTGKTQLCHTLCVTCQLPISQGGAEGMALYIDTEGTFRPERLVAVAERYKLDPEDVLANVACARAFNTDHQQQLLLQASAMMAENRFALIVVDSATALYRTDYSGRNELAARQMHLGKFLRSLHNLAEEYGVAVVVTNQVVANVDGSAQMFQADSKKPIGGHIMAHASTTRLSLRKGRGEQRIIKVYDSPCLAEAEAIFGIYDDGVGDARD
As for B1, in data set [1], the binding result was “binds”.

B2: Leishmania infantum BRCA2, purified LiBRCA2-His (GST tag cleaved) (natural protein)
chain: MKTIACPHCTFINPPSKVKCGVCLRLLRKRERTVADASPATANRGRKGTPSPSSTPTEHDSPATGSSQVRCDTTKSSMPLATPKSGTVASAQAVQPPDVEAMAAAPPLVPTLFSTASGKPVTVRRESLQKVAERLGDLAAPDMEARVPTLFETGRGKAVTVQKRSLDKAEASMDSLEADGAPSTSAPALSATTGGAAVRVPAVPLQAPAERLRLKSLSDKDDTSDTAAVRSIGAPRQTARAEALSRGLTTSTSECGLRALALHVIGGQRRGFVPPQQRPSAQPLAKLTHAVPLVKTSALTILRFNPDACTCRSITPSPSLSSITSLMFSFKGSDCGKVLAALLGVSGAESVQPLHWHAMLLKLGASPKHCTINWCRHALVSAMARAHFMTKVPSGALPSAFSPVTVLLCVMQMYNAEMVNGERPALRKMVEGDISSASLVVLYMSSVSEERSSPHMRIVTLSDGIYHLKVTCDVPLSNLIREGVLKPGQRMAVCGAKSLLHRQCAPTECEEQVVLSINYNCVRAVAQQTPLGVCHGEPLPLPLSLVHPLGGLVPAIEGVVARTLPSFFVSEEATETPGTHDGARQARNRVFKTVRNAHAQLQVSDRLRREAEAWADGEAAQSKPLSRVTSLLIVKDNAEALVQQWETVDERVLLADDDGGASLPVEGSWVTLYAVNPAKSRTAAAPFPRAKLFFSSRQLHYVPSKNPLQHLRRIWMAATDNKSTAGVGDVADVCGLYMGSHRNEQGTFALLLLRNDTYALLQVPVPSAGRALSLPLPATERLSLVVLNATFLTGEDPVAGSDCCRLFANEYTAVLQRSTQANLKEALETAAQLRGLVDAAPQKYAARKAEVFRCIDEGEPSGGLGLGSSTALTIRDGQGVPEVPLNVWRDAPLASPSAAATSLVPAQRYGRLPYYLRQDNERAIAGKLTGVLLPSAALPTPAVPTAVQGPYSATTIHPGVREPLVQPANSVAGARSRHYGNIADLMFLFDPRLNRRAWHPLTDPLQVTSSEVVRHGECFKRAQLCWRLSADSADDMTCRVEESSILGTVLESVCPLQELCSVIADERHIDVSLARSERLVQWRRQDSLSVWWRFFTDSRALASPADLDGASSEHLWWLPAEWTAAMRTVSAKLQAAFFYFSLSGEVLRHVRLISDCCSVAELPCD
Regarding B2, in data set [1], the binding result is “binds”.

B3: 60-mer ssDNA (JYM925) (ssDNA)
DNA: GGGTGAACCTGCAGGTGGGCAAAGATGTCCTAGCAATGTAATCGTCAAGCTTTATGCCGT
Turning to B3, the values for the binding result in data set [2] and in data set [3] were “no binding” and “binds”, respectively.

B4: 60-mer dsDNA (JYM925/JYM945) (dsDNA)
DNA 1: GGGTGAACCTGCAGGTGGGCAAAGATGTCCTAGCAATGTAATCGTCAAGCTTTATGCCGT
DNA 2: ACGGCATAAAGCTTGACGATTACATTGCTAGGACATCTTTGCCCACCTGCAGGTTCACCC
Take B4: the binding result in data set [3] is “no binding”.

The values are drawn from PMC3413117 (Nucleic Acids Research, 2012).
